Reference: patent US20090105116A1

Columns and labels:
[1] = target: T1, CaCdc42 (R150K), sNBD-labeled and GMPPCP-loaded (Candida albicans); test: fluorescence titration of 1 µM sNBD-labeled, GMPPCP-loaded CaCdc42 (R150K)
[2] = target: T1, CaCdc42 (R150K), sNBD-labeled and …; test: fluorescence titration of 1 µM CaCdc42 (R150K) with eCla4-SLAM, no SAP-SH2
[3] = target: T1, CaCdc42 (R150K), sNBD-labeled and …; test: fluorescence titration of 1 µM sNBD-labeled, GMPPCP-loaded CaCdc42 (R150K) with the peptide [panel A]
[4] = target: T1, CaCdc42 (R150K), sNBD-labeled and …; test: fluorescence cross-titration of sNBD-labeled CaCdc42 (R150K) in the presence of cCst20
[5] = target: T1, CaCdc42 (R150K), sNBD-labeled and …; test: fluorescence cross-titration; mCst20 with cCst20 added, against mCst20 alone
[6] = target: T1, CaCdc42 (R150K), sNBD-labeled and …; test: fluorescence titration of 1 µM sNBD-labeled, GMPPCP-loaded CaCdc42 (R150K) with the peptide [panel B]
[7] = target: T1, CaCdc42 (R150K), sNBD-labeled and …; test: fluorescence cross-titration of sNBD-labeled CaCdc42 (R150K) in the presence of cCla4
[8] = target: T1, CaCdc42 (R150K), sNBD-labeled and …; test: fluorescence cross-titration of sNBD-labeled CaCdc42 (R150K) in the presence of 50 µM mCla4
[9] = target: T1, CaCdc42 (R150K), sNBD-labeled and …; test: fluorescence cross-titration of sNBD-labeled CaCdc42 (R150K) in the presence of 50 µM mCst20
[10] = target: T1, CaCdc42 (R150K), sNBD-labeled and …; test: fluorescence cross-titration; cCst20 with mCst20 added, against cCst20 alone
[11] = target: eCla4-SLAM; test: fluorescence titration of sNBD-CaCdc42 (R150K) with eCla4-SLAM in the presence of SAP-SH2 (competition; fit of the apparent Kd against SAP-SH2 concentration)

B1: eCla4-SLAM (peptide)
peptide: GGNSGFPGPINFTHKVHVGFDRKSLTIYAQVQKNFTGLPDTWKSLLQHSKIT
modifications: not checked
Question: What does the source list for B1?
Answer: Kd [1]: 0.127 µM; EC50 (read off the curve) [2]: 0.7 µM

Question: For GNSGVSGPINFTHKVHVGFDPASGNFTGLPDTWKSLLQHSKITN (modifications not checked) [eCla4, O14427 227-270], which Kd [1] is on record?
Answer: 0.025 µM

Question: And the EC50 (read off the curve) [3]?
Answer: 0.5 µM

Question: Which Kd [1] does the source give for VNIKISTPFNAKHLAHVGIDDNGSYTGLPIEWERLLSASGITKK (modifications not checked) [eCst20, P0CY24 469-512] here?
Answer: 0.046 µM

Question: What about the EC50 (read off the curve) [3] of the same binder?
Answer: 0.5 µM

Question: VNIKISTPFNAKHLAHVGIDDN (modifications not checked) [mCst20, P0CY24 469-490] was tested. Which Kd [4] did it give?
Answer: 0.081 µM

Question: And the Kd [1]?
Answer: 0.43 µM

Question: What about the fold enhancement in binding upon addition of the cognate peptide [5] of the same binder?
Answer: 5.5 fold

Question: What about the EC50 (read off the curve) [6] of the same binder?
Answer: 0.9 µM

Question: GNSGVSGPINFTHKVHVGFDPA (modifications not checked) [mCla4, O14427 227-248] was tested. Which Kd [1] did it give?
Answer: 4.2 µM

Question: And the Kd [7]?
Answer: 4.1 µM

Question: SGNFTGLPDTWKSLLQHSKITN (modifications not checked) [cCla4, O14427 249-270] was tested. Which Kd [1] did it give?
Answer: 275 µM

Question: What about the Kd [8] of the same binder?
Answer: 311 µM

Question: How did the Kd [1] turn out when GSYTGLPIEWERLLSASGITKK (modifications not checked) [cCst20, P0CY24 491-512] was run?
Answer: 1160 µM

Question: What about the Kd [9] of the same binder?
Answer: 207 µM

Question: And the fold enhancement in binding upon addition of the cognate peptide [10]?
Answer: 5.5 fold

Question: With GGNSGVSGPINFTHKVHVGFDPASGSYTGLPIEWERLLSASGIT (modifications not checked) [mCla4-cCst20] as the binder, how does the Kd [1] read?
Answer: 0.031 µM

Question: EVNIKISTPFNAKHLAHVGIDDNGNFTGLPDTWKSLLQHSKIT (modifications not checked) [mCst20-cCla4] was tested. Which Kd [1] did it give?
Answer: 2.64 µM

Question: How did the Kd [1] turn out when EVNIKISTPFNAKHLAHVGIDPDNGNFTGLPDTWKSLLQHSKIT (modifications not checked) [mCst20-P-cCla4] was run?
Answer: 0.093 µM

Question: With GGNSGVSGPINFTHKVHVGFDSGSGNFTGLPDTWKSLLQHSKIT (modifications not checked) [eCla4-SG, O14427 227-248; O14427 249-270] as the binder, how does the Kd [1] read?
Answer: 0.067 µM

B2: SH2 domain from the SAP protein (protein)
chain: GSSHHHHHHSSFNPRGSDAVAVYHGKISRETGEKLLLATGLDGSYLLRDSESVPGVYCLCVLYHGYIYTYRVSQTETGSWSAETAPGVHKRYFRKIKNLISAFQKPDQGIVIPLQYPVEK
Question: Which Ki [11] does the source give for B2 here?
Answer: 362 µM
